From a protein production outcome set (Wang et al. 2014)

Assay: label from the status in PepcDB records

Row | Sequence | protein production
1 | LHDTDQQGMFERGSAIVEPRFRSLLQQIGSMLGEIDNRLLVVGHTDAAQYHRAGGFAAMSNWSLSSNRAMAARLHMMQGGLAADSVLQVVGMAERAPLDKQHPLGAVNRRIELLVLTSGQAQA | failed
2 | LHYVHVGNKKSPNTLLFVHGSGCNLKIFGELEKYLEDYNCILLDLKGHGESKGQCPSTVYGYIDNVANFITNSEVTKHQKNITLIGYSMGGAIVLGVALKKLPNVRKVVSLSGGARFDKLDKDFMEKIYHNQLDNNYLLECIGGIDNPLSEKYFETLEKDPDIMINDLIACKLIDLVDNLKNIDIPVKAIVAKDELLTLVEYSEIIKKEVENSELKIFETGKHFLLVVNAKGVAEEIKNFI | failed
3 | LKLTKIIVSEAGASVYSASEIAANEFPDLDVSLRGAVSIARRLQDPLAELVKIEAKSIGVGQYQHDVNQAKLARCLDGVVEDCVNAVGVDINTASAALLSHISGLNDTLAKNIVQFRDEHGAFTNRNQLKNIHRMGEKAFQQAAGFLRIMNGDNALDASCVHPEAYPLVEKIISDKKVSIKEIIGNRELLQSINAEQYVDENFG | failed
4 | LLEIKRKGAKRGSQHYSDRTCARCQESLGRLSPKTNTCRGCNHLVCRDCRIQESNGTWRCKVC | not failed
5 | LLNMKRAETGKALSPLQIQELQYMLEDFSPELIHEALKEAVSQGKANFAYIKVILNRWKQDNLLTVELVRN | failed
6 | LNDLKESSNNRKARVLYDYDAANSTELSLLADEVITVFSVVGMDSDWLMGERGNQKGKVPITYLELLN | not failed
7 | LNTAPIFMPNTVGGYFPGPRTFPGNKKILYNSSTMVKALSRGYVVVSAGLRGRTLTNEKGEFIGKAPAFIIDMKAAIRYIKFNKDNFPGDVNKIITNGTSAGGAISALIGASGNNVFFEKELDEIGAADSSDNIFAVSAYCPIHNLENADAAYEWQFNGINDWHTQKIDIKNGKAEFSPLNGQLNELEKQLSSKLKNQFIEYLNSLRLRNPDGDYLTLNKIGEGNFLDLTKKFLIKSAQTEIEKGNELNNPNFLDIRNGKVVSLKWKAYLRYITRMKKVPAFDDLGLNNPENDLFGDIKIKAKHFTEIGQKYSEKTAKKADPELVTAINPLNYLNNQSNSLIAKHWRIRHGAADRDTSFAVPIILATTLQNMNLDIDFFMPWAKPHSGDYDLIDLFDWIDSLVKEK | failed
8 | LPAGLYFVGTPIGSARDITLRALDVLASAEVIAAEDTRSLRHLLDIHGVPLDGRRVLAYHDHSGAGAQARLLEALAEGKSVAYASEAGMPLIADPGFELSRAAAEAGHMVTC | not failed
9 | LPAHSWLGSFQAAGFDLVGQAWLPEQPSATLFLLHGYYDHMGLYRHVIEWALKQGFAVISCDLPGHGLSSGERASITDFAVYQQVLEALFEQAHTLQLPHPWHLCGQSTGGAIAVDHLLHQGARSPVDGQVILLAPLVRPSSWRWSKFSYCVLRHFVNGIERRFSENTNDPAFLPFLEADPLQPRRLPTAWVGALIAWVKRIEAAPRSARRPLIVQGEADGTVDWPHNLEVLKAKFAEPQILMLPEARHHLANELPGIRQRYFDFIDQRLG | failed
10 | LQQQEEETYADACDEFLDPIMSTLMCDPVVLPSSRVTVDRSTIARHLLSDQTDPFNRSPLTMDQIRPNTELKEKIQRWLAERKQQ | not failed
11 | LRASEESFRQAFEYAPSGMAIAEMGGDQHGRILRTNDALCRLLGRPASAMRRYSFSDLVHPEDIGTLLRTSAEGGRAELRLGRRDGTYVWVSLRNSVVADAADGPRFLLTHVEDIEERKRRELQLAHRASHDSLTGLPNSAELRSRLSARLCRRPQSAELGAVESLDAAYAHGQYTTEHPAAYDTSGHGEQPGHGHGFDFTQGPGPYDAFDHHVHTVAPEGQTDDGTKGLAVLFCDLDGFKSINDRFGH | failed
12 | LSHGDFELAVPGGPVAAYYAAPAGREQLPIVLVVQEIFGLHEHIKDVCRRLAHDGYLAVSVNLYQRQGDASRYDNIPGLVAELVSKVPDEQVHADLDASLAWAAAHGGDGARVGVTGFCWGGRTTWMYAARNPAVKAGVAWYGRLSSGHGPLIKQVPLDVAGSLHAPVLGLYGGKDESIPLDDVRAMEARLQQGGAPAQASRIVVYPQAGHAFLADYRPSYRAADAQDGWRRMLDWFALYL | failed
13 | LTGFQNYLNSIIDSMPSALIALDEQLYVTQWNQEASALSGTRLDEALNQPIFLAFEPLKPFLPQLKETVEQHTVTKVERVTWFKDEEPKHYALTFYPLMGGAGRGVVIRIDDITQRLSLEEMMVQSEKMLSVGGLAAGMAHEINNPLGAI | failed
14 | LTLRSVFQPIFDKQHQVVGAEALVRIFTQHHTQIRPDLFFHSETFADDDKLNVERLSRAIHIRNFSLSPYRDTRLFLNVLPVAGEQFAYCDISSTLLATRLAELNIPHHRVVMELVEIESGDEGMLQMATEKLVANGFQIAIDDFGCKASTPERVAMLRPNIIKLDRQLLLDFMAGDCCGLLAGVQLAQKTGAHTVVEGIETAEQLAAMQKLDINMYQGYYLALP | failed
15 | LTTAGYYAAVDWGTSSFRLWIIGEDGAVLAERRSAEGMTTAAKTGFHTILDGHLAAVSAPAHLPIIICGMAGARQGWKEAGYIETPAALAEIAGRATAIPDVDRDIRILPGLAQRDRRHPDVMRGEETQLLGAAAHLGAGSHLVCMPGTHSKWVRLADDRVEGFSTFMTGELFDTIARHTILSHAVAEADTFAAGSAAFTDAVSRTRENPALATNLLFSVRAGQLLHGTAAADARAQLSGTLIGLEIAGALAGSGSVDGVCLVGSGGLGTLYRTALESQGLNVRAVDADEAVRAGLSAAARAIWPL | not failed
16 | LTVHYDLQLYKINYKTQSPDGNLTIASGLVAMPIHPVGQVGIISYQHGTRFERNDVPSRNNEKNYIYLAAYGNSAGYMTVMPDYLGLGDNELTLHPYVQAETLASSSIDMLFAAKELANRLHYPISDKLYLAGYSEGGFSTIVMFEMLAKEYPDLPVSAVAPGSAPYGWEETMHFVMLEPGPRATAYLAYFFYSLQTYKSYWSGFDEIFAPPYNTLIPELMDGYHAVDEILQALPQDPLLIFQPKFSNGIISKTDRNTEILKINFNHYDFKPTAPLLLVGTKGDRDVPYAGAEMAYHSFRKYSDFVWIKSVSDALDHVQAHPFVLKEQVDFFKQFERQE | not failed
17 | LTVTVTHSNEKHDLHVTSQQGSSEPVVQDLAQVVEEVIGVPQSFQKLIFKGKSLKEMETPLSALGIQDGCRVMLIGKKN | not failed
18 | LVADASPFAMLEQAPDDLISHYDLTGRLLRVSPAWSRIIGGSVAEAAGRRTWDFIAPEDHPAVAAYYADLLREGAAPSSRLRMRVRHVAGDIRVLESRPMPIRNAEGVVTGFVDIARDITEQIETERRYQLALAQAHEA | failed
19 | LVRQEETLRLAIDAADVGTWDHDLETGEVRLSDRCYAMFGVTPGEPVTHETLMPFTHPADVVRVQEAVARALDPAIRADYAIEFRVNGRDDHVERWLSAKGEVSFDNEGRPRRFLGAVVNITERKRAELHLRLLVNELNHRVKNSLATIQAIAAQSFNGQRDMDEAKEAFSNRIVALAEAHDLLTRENWEGAEMHDVAARVAALHGGDARFELSGVAIRLSPKTALSLSMALHELATNAVKYGALSVPEGVVRIVWDMAPEP | failed
20 | LYATLSGVSLALADSADRRILLQTVCDVCVREAGFEMAWVGLLDADEKRVEVAALSRGERASMPGELPGHAEDAQAPGPVSRALRSRAAQVSNDAQSDPALKPWHGALSRQGIRSLLVVPLLVRQQVAGALALHAGEEGFFDQSRRALFELMAREIGRGLERHDALERSHRAETELAFLAQ | failed
21 | LYPILIGIYASVIPFYIALYSTFRLLSYIDENKAFSQISVKALNNIKHCTIAISILYMATMPFVYLLADKDDAPGLIIIGMVPIFASLVISVFSAVLQRLLQEAIDIKSENDLTV | failed
22 | MAAEHGLILDFTTVLGASALGGYLANRLRQPVLLGYLVTGLALGPYGLKLLSDVPRIQSLASIGVAFLLFALGVEFSLTELRRVKNIAINGSLLQIGLTTALVAFLTITLGWVDNLTQGIFLGVVLSLSSTAVVLKTLGERGETNTLHGQVMLAILIAQDLALGLILAFLPVLNQPERLVWALGIALLKVLLFLALAIALGRWIVPKLISNVAATESTELFVLTVISLCLSVALVTAKLGLSIEMGAFVAGLMVSEIDHADHALAKVLPLRDTFACLFFASIGMLIDPIALMQNLGLVLGLVTLVMLGKAIVVMPIILKFGYSLKTTILTSLGINQIGEFSFVLALAGLQLQLIPEKTYILLLETTAITLVLTPISLNIAPQLIERLTQIPFFAQSLRQFTEPNILSIPETISGHVVVAGYGRVGQVIVNILLNQGYVVLVIENSEAAIQRLRMQRIPYIFGDADSELVLEKIHLETAKALAIALPDPASSRLLLKRALAIAPKLDVIARSHHDNEIDLLTQMGAKEVVQPEFEAALELSAHLLSTLGEAKSQIDTVISDIRTDRYRSIRPRR | failed
23 | MAAHLEEQQELDNFKYFWKTTGKWLFALLILAALGYLGYTVYQNRKVSQNQEAAAVLANIVEKAQSKAPQSEINAELTKLQQSYPHSISAAQATLMAAATEFDAQRYDVAEGHLKWVLSNQKDSLIQALAAQRLGVVLLQQKKYDAALAALDTPVEADFAPLLMETKGDVYAAQGKSQEALKNYGQALEKMPQDSVGRELVQMKLDSLK | failed
24 | MAAIVLTRNLQLAKHHGSGVVGVLCLRGYSAAAAPPEDGPRPLKTTNPAAMKRGTGGRSSFNGIVATVFGATGFVGRYVCNKLGKSGTQMILPYRGDDSDVIRLKVTGDLGQVLFHFYNLEDPASIRDAVKHSNVVINLVGRDFETKNFKFKDVHVNGAERIARIAREAGVERLIHLSSLNVEANPKDLYVKGGSEWLKSKYEGELRVRDAFPNATIIRPADIYGSEDRFLRYYAHIWRRQFRSMPLWHKGEKTVKQPVYVSDVAQAIINAAKDPDSAGRIYQAVGPKRYQLSELVDWFHRLMRKDQKRWGYMRYDMRWDPTFLLKAKLNSFICPGTPIGGLHPARIEREAVTDKVLTGVPTLEDLGVTLTTMEQQVPWELRPYRAALYYDAELGEFETPSPPKCIEARDELRLFA | failed
25 | MAAKLCIPSSSFSHRTNDSITSSSSSYSSLLALPQFFCPPSPLGFPQFKLHAKLGGGDGEVKPKDKKKFITKDEEPEQYWQSVGEREGENPMKTPLPYIIIFGMSTPFVILAIAFANGWIKVPIR | failed
26 | MAAKTRTFRAAADAWLKAKEEKGLAPSTLNKIRTYLDKDILPALGDKPLDEITRTDCAELQASIEARDAHNVAEKCRTWINQIFGRAIGLGLTENDPGSRLRDIAAQAPKTQLEHHHHHH | failed
27 | MAALAIIQSLNTSSYPIDIQRLKPKKMPEEPGPARNKFRSDFIVEIALIVAVAVYLVMAQGQVVGENLSFTVTGAALMALATYWTLHTIRDGLEVIALRLRPGK | failed
28 | MAANRRNETASEAHGLDDILSAAAPRPRTALPNVATTVTTVAALYFGREVFLPIAIALLLTFALAPLVSALKRVGIPRIAAVIVSVLSAFAALALFSFVVATQVSELAQNIPVYQTNILAKIRSLKETGVGGGIIAKLSNVVERVGQEIDRQDATLPAATPDKQPREPVPVEIVARERPLEVLQNIVGPLISPLGSAGLIIVVVIFMLLEREDLRDRFIRLVGYGDLHRTTEALQDAAKRVGRYLLMQLVVNIVYAIPIAIGLWILGIPNALLWGLLALALRFVPYIGPAIGMLLPLFLALAVAPGWSLVLWTAALFVVMELVTGNVVEPWLYGSRTGLSPLAIIVAAIFWTWLWGPLGLVLSTPLTVCLVVLGRHVPQFEFLDVLFGNEPVLEPHARLYQRLLAGDPDEATDHAEEMLEEKYLVEFYDKVAIPALLLGERDRARGVMGDQQRRQVAASALALVANLEDDAKEEADGDDAPHVAEAEGEPGDAVEEEATELPDGTGLSVLCAGGRGDLDDAAAAMLAQVLEVQGATASKAGFAEMEPASIRRLELETIDTVVVGFLNRDSVKHARFLVRRLKRAKAALRVGIVFWSETGNGDKEAAAKLAQDINADFVAHGMVDAVTDALSHEPPVALKLVAKRRMRRPRAAPRKVPAAAAG | failed
